From PMC7575552

Biological target: Hsp70 (385–641) (UniProt P0DMV8)
Assay: ITC; TA Instruments NanoITC, 25 °C, stir speed 600 rpm; 350 µM WT or S20E CHIP titrated into 50 µM Hsp70 (385–641), twenty-four 2 µL injections; triplicate

Sequence of UniProt P0DMV8 (P0DMV8 385-641): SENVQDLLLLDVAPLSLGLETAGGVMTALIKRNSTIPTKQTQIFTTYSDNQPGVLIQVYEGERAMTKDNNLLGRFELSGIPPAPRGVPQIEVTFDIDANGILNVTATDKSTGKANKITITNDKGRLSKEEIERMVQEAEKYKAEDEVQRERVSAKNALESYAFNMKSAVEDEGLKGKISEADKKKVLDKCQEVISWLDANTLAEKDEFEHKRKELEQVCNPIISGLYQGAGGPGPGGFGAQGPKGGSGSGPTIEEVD

Substance: Recombinant human CHIP S20E (phosphomimetic) (from UniProt Q9UNE7 1-303) (natural protein)
- dH: -7.67 kcal/mol

Substance: Recombinant human CHIP wild type (from UniProt Q9UNE7 1-303) (natural protein)
- dH: -6.31 kcal/mol
